Results as given in publication PMC8946217, “Selective Targeting of Protein Kinase C (PKC)-θ Nuclear Translocation Reduces Mesenchymal Gene Signatures and Reinvigorates Dysfunctional CD8^+ T Cells in Immunotherapy-Resistant and Metastatic Cancers” (Cancers, 2022).

Target: biotinylated GST-importin α2 (UniProt P52293 1-529, biotinylated)
Experiment: AlphaScreen or HTRF; about 30 nM His6-PKC-θ and increasing concentrations of biotinylated GST-importins; in triplicate; three parameter sigmoidal curves fitted; quenched values in the hooking zone excluded
Settings: both partners purified

- Kd: 2.75 nM
B1: His6-PKC-θ (protein kinase C theta) (enzyme)
chain: MSPFLRIGLSNFDCGSCQSCQGEAVNPYCAVLVKEYVESENGQMYIQKKPTMYPPWDSTFDAHINKGRVMQIIVKGKNVDLISETTVELYSLAERCRKNNGKTEIWLELKPQGRMLMNARYFLEMSDTKDMNEFETEGFFALHQRRGAIKQAKVHHVKCHEFTATFFPQPTFCSVCHEFVWGLNKQGYQCRQCNAAIHKKCIDKVIAKCTGSAINSRETMFHKERFKIDMPHRFKVYNYKSPTFCEHCGTLLWGLARQGLKCDACGMNVHHRCQTKVANLCGINQKLMAEALAMIESTQQARCLRDTEQIFREGPVEIGLPCSIKNEARPPCLPTPGKREPQGISWESPLDEVDKMCHLPEPELNKERPSLQIKLKIEDFILHKMLGKGSFGKVFLAEFKKTNQFFAIKALKKDVVLMDDDVECTMVEKRVLSLAWEHPFLTHMFCTFQTKENLFFVMEYLNGGDLMYHIQSCHKFDLSRATFYAAEIILGLQFLHSKGIVYRDLKLDNILLDKDGHIKIADFGMCKENMLGDAKTNTFCGTPDYIAPEILLGQKYNHSVDWWSFGVLLYEMLIGQSPFHGQDEEELFHSIRMDNPFYPRWLEKEAKDLLVKLFVREPEKRLGVRGDIRQHPLFREINWEELERKEIDPPFRPKVKSPFDCSNFDKEFLNEKPRLSFADRALINSMDQNMFRNFSFMNPGMERLIS
notes: protein kinase C theta (PKC-θ); also called recombinant purified His6-PKC-θ; source: recombinant, purified
